Test [1] addresses T1, human NKG2D expressed on EL4 cells (Example 8) (human, UniProt P26718 1-216).
T1 construct: whole, on cells; also called extracellular NKG2D expressed on EL4 cells
T1 sequence (looked up): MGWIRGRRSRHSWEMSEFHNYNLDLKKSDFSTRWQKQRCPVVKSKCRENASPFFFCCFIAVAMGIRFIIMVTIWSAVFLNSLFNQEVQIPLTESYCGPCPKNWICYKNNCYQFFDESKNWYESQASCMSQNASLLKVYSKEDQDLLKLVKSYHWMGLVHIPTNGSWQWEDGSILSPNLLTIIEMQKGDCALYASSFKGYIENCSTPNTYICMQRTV
Description: flow cytometry on EL4 cells expressing human NKG2D. Here is the method:
EL4 mouse lymphoma cell lines were engineered to express human NKG2D. […] The binding of the multi-specific binding proteins to NKG2D was detected using fluorophore-conjugated anti-human IgG secondary antibodies. Cells were analyzed by flow cytometry, and fold-over-background (FOB) was calculated using the mean fluorescence intensity (MFI) of NKG2D-expressing cells compared to parental EL4 cells.
On the technique in general: A flow cytometer gives signals particle by particle.

Test [2] deals with T2, CD33 expressed on human AML cells (MV4-11, Molm-13) (human, UniProt P20138 18-364).
T2 construct: In the assay the endogenous CD33 of the human AML cell lines was the target; also called cell surface CD33; tumor associated antigen CD33
T2 sequence (P20138 18-364 limits assumed): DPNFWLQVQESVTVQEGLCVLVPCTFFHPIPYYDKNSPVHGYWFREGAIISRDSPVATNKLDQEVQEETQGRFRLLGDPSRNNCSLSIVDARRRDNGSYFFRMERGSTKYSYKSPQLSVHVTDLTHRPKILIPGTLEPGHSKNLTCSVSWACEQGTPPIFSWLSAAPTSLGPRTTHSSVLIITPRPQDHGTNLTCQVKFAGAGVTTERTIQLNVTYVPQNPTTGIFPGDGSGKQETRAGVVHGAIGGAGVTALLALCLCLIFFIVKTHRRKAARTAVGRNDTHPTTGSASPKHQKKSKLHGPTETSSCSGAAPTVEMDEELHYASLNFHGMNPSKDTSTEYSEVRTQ
Description: flow cytometry on Molm-13 and MV4-11 human AML cells. The method, then: Human AML cell line MV4-11 and Molm-13 expressing CD33 were used to assay the binding of TriNKETs to the tumor associated antigen CD33. TriNKETs and optionally the parental anti-CD33 monoclonal antibody were incubated with the cells, and the binding was detected using fluorophore-conjugated anti-human IgG secondary antibodies. Cells were analyzed by flow cytometry, and fold-over-background (FOB) was calculated using the mean fluorescence intensity (MFI) from the TriNKETs and the parental monoclonal anti-CD33 antibody normalized to secondary antibody controls. […] The TriNKETs show binding to cell surface CD33 on MV4-11 (FIGS. 36A, 36B, and 36D) and Molm-13 cells (FIG. 36C).

B1: CD33-TriNKET-C26 (ADI-28226 and a CD33-binding domain) (bispecific antibody, V domains shown)
VH 1: QVQLQQWGAGLLKPSETLSLTCAVYGGSFSGYYWSWIRQPPGKGLEWIGEIDHSGSTNYNPSLKSRVTISVDTSKNQFSLKLSSVTAADTAVYYCARARGPWSFDPWGQGTLVTVSS
VL 1: DIQMTQSPSTLSASVGDRVTITCRASQSISSWLAWYQQKPGKAPKLLIYKASSLESGVPSRFSGSGSGTEFTLTISSLQPDDFATYYCQQYGSFPITFGGGTKVEIK
VH 2: QVQLVQSGAEVKKPGASVKVSCKASGYTFTDYVVHWVRQAPGQGLEWMGYINPYNDGTKYNEKFKGRVTMTRDTSISTAYMELSRLRSDDTAVYYCARDYRYEVYGMDYWGQGTLVTVSS
VL 2: DIVLTQSPASLAVSPGQRATITCTASSSVNYIHWYQQKPGQPPKLLIYDTSKVASGVPARFSGSGSGTDFTLTINPVEANDTANYYCQQWRSYPLTFGQGTKLEIK
Take B1: the binding result in test [1] is recorded as “binds”.

B2: parental anti-CD33 monoclonal antibody (antibody, V domains shown)
VH: QVQLVQSGAEVKKPGASVKVSCKASGYTFTDYVVHWVRQAPGQGLEWMGYINPYNDGTKYNEKFKGRVTMTRDTSISTAYMELSRLRSDDTAVYYCARDYRYEVYGMDYWGQGTLVTVSS
VL: DIVLTQSPASLAVSPGQRATITCTASSSVNYIHWYQQKPGQPPKLLIYDTSKVASGVPARFSGSGSGTDFTLTINPVEANDTANYYCQQWRSYPLTFGQGTKLEIK
notes: Detected with anti-human IgG; also called parental monoclonal anti-CD33 antibody; parental anti-CD33 antibody
Consider B2, for which the binding result in test [2] is recorded as “binds”.

B3: CD33-TriNKET-A49 (ADI-27749 and a CD33-binding domain) (bispecific antibody, V domains shown)
VH 1: EVQLVESGGGLVKPGGSLRLSCAASGFTFSSYSMNWVRQAPGKGLEWVSSISSSSSYIYYADSVKGRFTISRDNAKNSLYLQMNSLRAEDTAVYYCARGAPMGAAAGWFDPWGQGTLVTVSS
VL 1: DIQMTQSPSSVSASVGDRVTITCRASQGISSWLAWYQQKPGKAPKLLIYAASSLQSGVPSRFSGSGSGTDFTLTISSLQPEDFATYYCQQGVSFPRTFGGGTKVEIK
VH 2: QVQLVQSGAEVKKPGASVKVSCKASGYTFTDYVVHWVRQAPGQGLEWMGYINPYNDGTKYNEKFKGRVTMTRDTSISTAYMELSRLRSDDTAVYYCARDYRYEVYGMDYWGQGTLVTVSS
VL 2: DIVLTQSPASLAVSPGQRATITCTASSSVNYIHWYQQKPGQPPKLLIYDTSKVASGVPARFSGSGSGTDFTLTINPVEANDTANYYCQQWRSYPLTFGQGTKLEIK
As to B3, the binding result in test [1] was “binds”.

B4: CD33-TriNKET-A44 (ADI-27744 and a CD33-binding domain) (bispecific antibody, V domains shown)
VH 1: not shown
VL 1: DIQMTQSPSSVSASVGDRVTITCRASQGIDSWLAWYQQKPGKAPKLLIYAASSLQSGVPSRFSGSGSGTDFTLTISSLQPEDFATYYCQQGVSYPRTFGGGTKVEIK
VH 2: QVQLVQSGAEVKKPGASVKVSCKASGYTFTDYVVHWVRQAPGQGLEWMGYINPYNDGTKYNEKFKGRVTMTRDTSISTAYMELSRLRSDDTAVYYCARDYRYEVYGMDYWGQGTLVTVSS
VL 2: DIVLTQSPASLAVSPGQRATITCTASSSVNYIHWYQQKPGQPPKLLIYDTSKVASGVPARFSGSGSGTDFTLTINPVEANDTANYYCQQWRSYPLTFGQGTKLEIK
On to B4, for which the binding result in test [1] is listed as “binds”.

B5: CD33-TriNKET-F47 (ADI-29447 and a CD33-binding domain) (bispecific antibody, V domains shown)
VH 1: QVQLQQWGAGLLKPSETLSLTCAVYGGSFSGYYWSWIRQPPGKGLEWIGEIDHSGSTNYNPSLKSRVTISVDTSKNQFSLKLSSVTAADTAVYYCARARGPWSFDPWGQGTLVTVSS
VL 1: DIQMTQSPSTLSASVGDRVTITCRASQSISSWLAWYQQKPGKAPKLLIYKASSLESGVPSRFSGSGSGTEFTLTISSLQPDDFATYYCQQYDTFITFGGGTKVEIK
VH 2: QVQLVQSGAEVKKPGASVKVSCKASGYTFTDYVVHWVRQAPGQGLEWMGYINPYNDGTKYNEKFKGRVTMTRDTSISTAYMELSRLRSDDTAVYYCARDYRYEVYGMDYWGQGTLVTVSS
VL 2: DIVLTQSPASLAVSPGQRATITCTASSSVNYIHWYQQKPGQPPKLLIYDTSKVASGVPARFSGSGSGTDFTLTINPVEANDTANYYCQQWRSYPLTFGQGTKLEIK
Regarding B5, the binding result in test [1] is given as “binds”.
